Experimental data as given in US20150037348A1 (AbbVie / Abbott, published 2015).

Columns and labels:
[1] = molecular target: dog IL-12 (dog); test: cell-based or functional assay
[2] = molecular target: T1, human IL-1α (human, UniProt P01583 113-271); test: competition ELISA: soluble cytokine against J695 (100 ng/ml) binding to immobilized human IL-12
T1 sequence (looked up): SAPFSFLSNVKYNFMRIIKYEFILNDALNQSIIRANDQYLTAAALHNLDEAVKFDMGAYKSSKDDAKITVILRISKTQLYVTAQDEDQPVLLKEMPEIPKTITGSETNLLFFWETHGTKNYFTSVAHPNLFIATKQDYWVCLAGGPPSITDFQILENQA
Description: (§1) The plates were washed 4 times and incubated for 1 h at room temperature with 100 μl mouse anti-human lambda-HRP (1:500 in PBS-T/BSA, Southern Biotech. Ass. Inc., Birmingham, Ala.). The plates were washed 4 times and developed with ABTS (Kirkegaard & Perry Lab, Gaithersburg, Md.) for 20-30 minutes in the dark. The OD₄₅₀ nm was read using a microplate reader (Molecular Devices, Menlo Park, Calif.).

[3] = molecular target: human IL-1β (human, UniProt P01584 117-269); test: as above
Description: as §1

[4] = molecular target: human IL-2 (human, UniProt P60568 21-153); test: as above
Description: as §1

[5] = molecular target: T2, human IL-4 (human, UniProt P05112 25-153); test: as above
T2 sequence (looked up): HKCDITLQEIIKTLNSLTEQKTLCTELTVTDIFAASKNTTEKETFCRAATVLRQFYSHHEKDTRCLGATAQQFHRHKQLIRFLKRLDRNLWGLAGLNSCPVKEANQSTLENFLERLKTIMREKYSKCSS
Description: as §1

[6] = molecular target: human IL-10 (human, UniProt P22301 19-178); test: as above
Description: as §1

[7] = molecular target: human IL-17 (human, UniProt Q16552 20-155, limits assumed); test: as above
Description: as §1

[8] = molecular target: T3, human IFN-gamma (human, UniProt P01579 24-166, limits assumed); test: as above
T3 sequence (looked up): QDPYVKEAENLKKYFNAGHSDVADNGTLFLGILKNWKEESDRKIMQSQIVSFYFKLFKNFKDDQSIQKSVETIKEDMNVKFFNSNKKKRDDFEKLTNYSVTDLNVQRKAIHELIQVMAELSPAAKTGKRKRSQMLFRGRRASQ
Description: as §1

[9] = molecular target: human TGF-β1 (human, UniProt P01137 279-390); test: as above
Description: as §1

[10] = molecular target: human IGF-I (human, UniProt P05019 49-118); test: as above
Description: as §1

[11] = molecular target: human TNFα (human, UniProt P01375 77-233); test: as above
Description: as §1

[12] = molecular target: T4, human lymphotoxin (human, UniProt P01374 35-205, limits assumed); test: as above
T4 sequence (looked up): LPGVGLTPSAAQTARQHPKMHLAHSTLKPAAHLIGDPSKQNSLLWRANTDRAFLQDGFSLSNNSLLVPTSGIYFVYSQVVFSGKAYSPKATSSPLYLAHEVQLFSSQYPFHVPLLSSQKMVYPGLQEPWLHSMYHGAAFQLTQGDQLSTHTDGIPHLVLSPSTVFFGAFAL
Description: as §1

[13] = molecular target: human IL-6 (human, UniProt P05231 30-212); test: as above
Description: as §1

[14] = molecular target: T5, human soluble IL-6 receptor (human, UniProt P08887 20-358); test: as above
T5 construct: Soluble form
T5 sequence (looked up): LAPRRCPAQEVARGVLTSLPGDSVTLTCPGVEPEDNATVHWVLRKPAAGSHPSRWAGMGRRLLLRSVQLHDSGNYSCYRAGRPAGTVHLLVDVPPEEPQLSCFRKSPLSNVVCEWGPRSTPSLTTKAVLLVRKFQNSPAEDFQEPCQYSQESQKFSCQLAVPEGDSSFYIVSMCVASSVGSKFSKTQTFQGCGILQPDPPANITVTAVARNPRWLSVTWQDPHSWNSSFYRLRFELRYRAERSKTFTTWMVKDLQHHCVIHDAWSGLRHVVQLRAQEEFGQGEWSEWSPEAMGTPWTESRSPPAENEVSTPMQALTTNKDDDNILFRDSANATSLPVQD
Description: as §1

[15] = molecular target: T6, human IL-11 (human, UniProt P20809 22-199); test: as above
T6 sequence (looked up): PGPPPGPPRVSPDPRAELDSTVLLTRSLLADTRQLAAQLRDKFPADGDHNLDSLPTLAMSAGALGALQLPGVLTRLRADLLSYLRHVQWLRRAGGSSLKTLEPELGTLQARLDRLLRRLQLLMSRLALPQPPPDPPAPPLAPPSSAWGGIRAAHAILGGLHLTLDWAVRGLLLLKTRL
Description: as §1

[16] = molecular target: T7, human M-CSF (human, UniProt P09603 33-190, limits assumed); test: as above
T7 sequence (looked up): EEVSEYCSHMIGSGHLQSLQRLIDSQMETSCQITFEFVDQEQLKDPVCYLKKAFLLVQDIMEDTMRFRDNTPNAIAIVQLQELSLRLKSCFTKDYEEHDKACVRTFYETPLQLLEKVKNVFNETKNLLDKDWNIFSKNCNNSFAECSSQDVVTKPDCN
Description: as §1

[17] = molecular target: human LIF (human, UniProt P15018 23-202); test: as above
Description: as §1

human LIF, sequence (P15018 23-202 limits assumed): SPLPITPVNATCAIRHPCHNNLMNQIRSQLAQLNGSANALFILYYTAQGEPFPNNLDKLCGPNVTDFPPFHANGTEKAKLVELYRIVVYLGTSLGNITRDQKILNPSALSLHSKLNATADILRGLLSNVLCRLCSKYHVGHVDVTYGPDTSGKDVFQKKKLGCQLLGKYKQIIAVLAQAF
human TNFα, sequence (P01375 77-233 limits assumed): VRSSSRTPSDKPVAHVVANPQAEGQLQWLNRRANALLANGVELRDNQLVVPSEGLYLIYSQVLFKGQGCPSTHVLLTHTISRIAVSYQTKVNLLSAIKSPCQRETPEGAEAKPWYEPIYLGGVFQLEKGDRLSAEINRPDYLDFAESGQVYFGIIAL
human IL-2, sequence (P60568 21-153 limits assumed): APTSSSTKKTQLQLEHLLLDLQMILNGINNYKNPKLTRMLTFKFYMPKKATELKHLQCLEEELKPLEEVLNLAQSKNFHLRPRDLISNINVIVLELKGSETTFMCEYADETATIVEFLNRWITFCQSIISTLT
human IL-17, sequence (Q16552 20-155 limits assumed): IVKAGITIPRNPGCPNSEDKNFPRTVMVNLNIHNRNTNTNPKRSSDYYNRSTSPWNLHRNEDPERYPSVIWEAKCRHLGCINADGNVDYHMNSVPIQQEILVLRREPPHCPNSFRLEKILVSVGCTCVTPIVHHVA
human IL-10, sequence (P22301 19-178 limits assumed): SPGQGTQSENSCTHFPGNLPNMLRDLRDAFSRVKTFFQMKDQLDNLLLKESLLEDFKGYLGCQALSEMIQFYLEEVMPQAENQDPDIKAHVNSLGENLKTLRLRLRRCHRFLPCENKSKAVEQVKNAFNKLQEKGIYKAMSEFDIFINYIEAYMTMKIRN
human IL-6, sequence (P05231 30-212 limits assumed): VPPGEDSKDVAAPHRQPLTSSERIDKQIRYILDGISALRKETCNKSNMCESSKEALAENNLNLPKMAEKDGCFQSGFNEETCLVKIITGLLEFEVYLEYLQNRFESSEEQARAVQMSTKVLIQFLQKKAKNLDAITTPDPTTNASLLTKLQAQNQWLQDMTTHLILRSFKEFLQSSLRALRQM
human TGF-β1, sequence (P01137 279-390 limits assumed): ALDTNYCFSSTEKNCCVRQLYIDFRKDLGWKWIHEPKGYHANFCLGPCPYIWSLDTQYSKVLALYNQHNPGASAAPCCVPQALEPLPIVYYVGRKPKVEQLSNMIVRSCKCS

B1: J695 (antibody, V domains shown)
VH: QVQLVESGGGVVQPGRSLRLSCAASGFTFSSYGMHWVRQAPGKGLEWVAFIRYDGSNKYYADSVKGRFTISRDNSKNTLYLQMNSLRAEDTAVYYCKTHGSHDNWGQGTMVTVSS
VL: QSVLTQPPSVSGAPGQRVTISCSGSRSNIGSNTVKWYQQLPGTAPKLLIYYNDQRPSGVPDRFSGSKSGTSASLAITGLQAEDEADYYCQSYDRYTHPALLFGTGTKVTVLG
notes: Human IgG1 with lambda light chain (detected with anti-human lambda); Made in CHO or COS cells
B1 was tested, and the “activity on dog IL-12 in the neutralization bioassay, against human IL-12” value [1] was about 35 fold, the binding result [2] was “no binding (tested: 2 nM)” and the binding result [3] was “no binding (tested: 2 nM)”. B1: no binding (tested: 2 nM) [4]; no binding (tested: 2 nM) [5]; no binding (tested: 2 nM) [6]. B1: no binding (tested: 2 nM) [7]; no binding (tested: 2 nM) [8]; no binding (tested: 2 nM) [9]. B1: no binding (tested: 2 nM) [10]; no binding (tested: 2 nM) [11]; no binding (tested: 2 nM) [12]. B1: no binding (tested: 2 nM) [13]; no binding (tested: 2 nM) [14]; no binding (tested: 2 nM) [15]. B1: no binding (tested: 2 nM) [16]; no binding (tested: 2 nM) [17].
